PMC10897367, “Functional and structural asymmetry suggest a unifying principle for catalysis in membrane-bound pyrophosphatases” (EMBO Reports, 2024)

Assays:
[1] = target: the molecule itself; assay: crystal structure; time-resolved cryo-trapping: TmPPase in OGNG crystallised with K4PPi and without Na+, soaked in a Na+ trigger solution for 0-3600 s, flash cooled; molecular replacement with 4AV3
[2] = target: the molecule itself; assay: crystal structure; PaPPase in DM with 2 mM IDP, vapour diffusion, 30-33% PEG 400, 0.1 M MES pH 6.5, 0.05 M LiSO4, 0.05 M NaCl, 20 °C; eight datasets combined, molecular replacement with a 5LZQ-based model

Row | Protein | binding result [1] | binding result [2]
1 | K+-dependent Na+-pumping membrane-bound pyrophosphatase from Thermotoga maritima (TmPPase), wild type (enzyme, UniProt Q9S5X0 1-726, looked up, No tag cleavage is mentioned; also called K+-dependent Na+-PPase; Na+-PPase; source: S. cerevisiae BJ1991, purified (hot-solve solubilisation, nickel-NTA; OGNG)) MYVAALFFLIPLVALGFAAANFAAVVRKPEGTERMKEISSYIRSGADSFLAHETKAIFKVAIVIAILLMIFTTWQTGVAFLLGAVMSASAGIVGMKMATRANVRVAEAARTTKKIGPALKVAYQGGSVMGLSVGGFALLGLVLVYLIFGKWMGQVDNLNIYTNWLGINFVPFAMTVSGYALGCSIIAMFDRVGGGVYTKAADMAADLVGKTELNLPEDDPRNPATIADNVGDNVGDVAGLGADLLESFVGAIVSSIILASYMFPIYVQKIGENLVHQVPKETIQALISYPIFFALVGLGCSMLGILYVIVKKPSDNPQRELNISLWTSALLTVVLTAFLTYFYLKDLQGLDVVGFRFGAISPWFSAIIGIFSGILIGFWAEYYTSYRYKPTQFLSKSSIEGTGMVISNGLSLGMKSVFPPTLTLVLGILFADYFAGLYGVAIAALGMLSFVATSVSVDSYGPIADNAGGISEMCELDPEVRKITDHLDAVGNTTAAIGKGFAIGSAIFAALSLFASYMFSQISPSDIGKPPSLVLLLNMLDARVIAGALLGAAITYYFSGYLISAVTKAAMKMVDEIRRQAREIPGLLEGKAKPDYNRCIEITSDNALKQMGYPAFIAILTPLVTGFLLGAEFVGGVLIGTVLSGAMLAILTANSGGAWDNAKKYLEAGNLEGYGKGSEPHKALVIGDTVGDPLKDTVGPSLDILIKIMSVVSVIAVSIFKHVHLF | binds | –
2 | K+-independent H+-pumping membrane-bound pyrophosphatase from Pyrobaculum aerophilum (PaPPase), wild type (enzyme, UniProt Q8ZWI8 1-721, looked up, No tag cleavage is mentioned; also called PaPPase:Mg5IDP; K+-independent H+-PPase; source: S. cerevisiae BJ1991, purified (hot-solve solubilisation, nickel-NTA; DM for crystals)) MNMISYALLGVILGISGVIYAVYLAVWVLRQDPGNEKMRFISQAIATGARAYLFRQYRTLAVLLVILAVLILVAIDMPRRTFGLTALAFIVGALGSMLAGYLGMYVTTRSASRVAQAAATGGMGKALLVSWRAGAVMGLSLASIALLLISGFYLVFRSVLPDDWAVPLVALGFGASLVTLFMRVGGGIYTKAADLGADLVGKVEAGIPEDDPRNPGVIADNVGDNVGDVAGMAADVYESYIVTVTAAIFLAAILGLPTQFIEAIILFAALALVATFAGVNLLKTTGVKHPLSSISLAIYATIGLSVVLFFIGAFTLGLDSTKALALAATTSLGAVIAPLIVKITDYYTSYNYGPVRKIAEQAKISPATVIITGYGVGLMSAIPVIAVIVAVLGISYMIGYYTVPVSGFGELSKYLAGIFGTAMASVGLLVVAGIIITADSYGPVSDNAGGVVEMAGLPDEVREITDVLDSVGNTTKATTKGYAIASAALAALVLFIALIFEIVYSASKILGKGIVDMISESLSGLQLINANVLIGAFLGVALVYFFSSRTLEAVGRTAMEIVEEIRRQFREKPGILEWKEQPDYARVVDIATRRALGEFLIPGLAAIVLPLITGLLLGWNALAGLIMGAIVAGVPRALLMANAGGAWDNAKKYIEIQGLKKTEMHKAAVIGDTVGDPMKDTVGPSLNPLIKVLNTLSVVFTYVIVSTNIALGIWPSGLLPF | – | binds
